Laboratory results: the supplement of paper PMC11908140

B1: library; numbered along this chain (parent)
chain: MRKPRAAVGSGHRKQAASQEGRQKHAKNNSQAKPSACDGLARQPEEVVLQASVSSYHLFRDVAEVTAFRGSLLSWYDQEKRDLPWRRRAEDEMDLDRRAYAVWVSEVMLQQTQVATVINYYTGWMQKWPTLQDLASASLEEVNQLWAGLGYYSRGRRLQEGARKVVEELGGHMPRTAETLQQLLPGVGRYTAGAIASIAFGQATGVVDGNVARVLCRVRAIGADPSSTLVSQQLWGLAQQLVDPARPGDFNQAAMELGATVCTPQRPLCSQCPVESLCRARQRVEQEQLLASGSLSGSPDVEECAPNTGQCHLCLPPSEPWDQTLGVVNFPRKASRKPPREESSATCVLEQPGALGAQILLVQRPNSGLLAGLWEFPSVTWEPSEQLQRKALLQELQRWAGPLPATHLRHLGEVVHTFSHIKLTYQVYGLALEGQTPVTTVPPGARWLTQEEFHTAAVSTAMKKVFRVYQGQQPGTCMGSKRSQVSSPCSRKKPRMGQQVLDNFFRSHISTDAHSLNSAAQ

Variants of: B1
Test: 8OG:A repair function score (normalized; synonymous = 0, nonsense = -1) (normalized log-likelihood score); higher = more repair activity (WT-like)
Conditions: with 8OG:A DNA repair reporter (GFP) in HEK-293 MUTYH KO cells
Outline: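 GFP+ (repair) and GFP− bins of viable mCherry+ cells were collected at 72 h from MUTYH knockout HEK-293 cells bearing lentiviral MUTYH cDNA NNN codon-scan libraries in 10 pg/ml doxycycline, co-transfected with an 8OG:A GFP repair reporter and mCherry. Tile amplicons were sequenced, and per-tile Rosace fitness scores were normalized to a repair function score anchored on synonymous and nonsense distributions. Synonymous medians were set to 0 and nonsense to -1, with variants under 300 counts per million at the start removed.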
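Further: cells sorted at 72 h after reporter transfection.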

Variant	8OG:A repair function score
R409T	0.31
A194L	-0.733
S54H	0.0058
Q181I	-0.0381
E341Q	-0.0264
W374M	0.217
E178C	-0.0388
G297I	-0.0605
T116R	0.0298
S344D	-0.196
L403A	-0.335
A354W	-0.0982
K492I	0.0148
L268D	0.0003
A51Y	0.00468
L516M	0.00845
L411R	-0.222
A456E	-0.405
C489S	0.0134
W447S	-1.01
L139T	0.00391
P317R	0.0296
S74C	-0.0037
T380A	0.0285

Variant	8OG:A repair function score
D322H	-0.147
T460H	-0.38
G368V	-0.27
K80Y	-0.271
V62C	-0.00556
D224L	-0.947
L277C	-0.0293
Y425V	0.00816
F59W	-0.25
T380G	0.0924
G222M	-0.381
G155N	-0.213
G444V	-0.448
Y152S	-1.19
A391S	-0.175
S227P	-0.658
L73F	-0.261
D300P	-0.0407
V207S	-0.875
D82H	-0.148
G297E	-0.0194
E303K	-0.0605
Q351W	-0.0304
S74W	-0.0127

Variant	8OG:A repair function score
V114P	-1.09
R189P	0.136
Y120I	-0.425
E90N	-0.0107
G412H	-0.792
A101F	-0.00851
V142R	-0.841
C278I	-1.03
Q435N	-0.138
S518A	0.00286
L73V	-0.108
Q521Y	0.025
Q288G	-0.0129
V458D	-0.952
A400T	-0.0197
H416K	-0.715
R98G	-0.574
E350D	-0.304
E140V	-0.181
G368D	-0.434
E178Q	-0.0318
Q232N	-0.0697
I118L	-0.0284
E141K	-0.0452

Variant	8OG:A repair function score
L290P	-0.0572
W75I	-2.41
A192L	-1.11
W381C	0.15
E382A	-0.0399
Q239L	-0.403
V62L	0.00583
C269Y	-1.12
A400G	-0.0159
P443D	-0.00467
T417M	0.321
G123W	-0.322
A334T	-0.0373
Q470A	-0.0419
L49R	0.00838
H57F	-0.751
A457I	-0.537
R219E	-0.837
T112A	-1.03
R69I	-3.35
K333I	-0.0317
P442G	-0.171
A212H	-0.341
K164V	0.027

Variant	8OG:A repair function score
R213A	-1.02
Q499W	-0.0171
E45V	-0.122
W124Y	-0.973
T176Y	-0.16
R398V	-0.2
D133Y	-0.727
A305P	-0.125
P264T	-0.066
I359S	-0.465
W103F	-0.399
A461Q	-0.495
D243G	-0.755
V207Y	-0.858
S490R	0.00301
G356W	-0.0772
P174E	-0.932
R336A	-0.0267
C304W	-0.296
S487C	0.0168
L131S	-0.315
D322A	-0.0859
E395H	-0.214
E45T	0.0748

Variant	8OG:A repair function score
K3S	-0.0766
C304F	-0.29
S55V	0.00566
I118K	-0.483
Q394R	-0.0703
H410Y	0.174
R69G	-0.281
V47N	0.0108
C278S	-1.07
L392S	-1.04
V214Y	-0.782
P247Y	-1.04
M93E	0.0066
G201E	-0.32
E452M	-0.205
V218R	-1.03
A513S	0.00165
E285S	0.0138
L423R	-0.232
Q111I	-1.18
Q288S	-0.0113
M125Y	-0.538
Q484Y	0.00945
V53W	-0.276

Variant	8OG:A repair function score
V438A	0.149
P225N	-0.234
G412F	-0.473
R336W	-0.0779
A334Y	0.0534
E452W	-0.631
G297W	-0.206
W85A	-1.08
P129A	-0.267
T440L	-0.194
L355D	-0.182
V142D	-1.15
E395R	-0.122
P129Q	-0.0447
P474K	-0.0164
A354T	-0.0601
V242G	-0.916
F504Q	-0.00826
R482M	-0.00466
M108Q	-0.453
V242F	-0.874
E285Y	-0.0542
S378G	-0.248
V165M	-0.283

Variant	8OG:A repair function score
C477D	0.016
Q472A	0.0214
R87A	-0.0289
Q499A	-0.02
R467H	-0.0349
V214F	-0.287
Q271C	-0.0175
N143M	0.113
C269K	-1.17
S367K	0.111
G148I	-1.27
L72M	-0.732
E319F	-0.211
R219W	-0.783
E395K	-0.345
R398K	-0.0169
E341W	0.0472
F504S	0.0238
S507F	-0.0917
L215I	-0.331
V142M	-0.673
A196W	-1.18
Q397P	-0.645
R175P	-0.229

Variant	8OG:A repair function score
V274E	-0.423
G186H	-0.754
Q499P	0.0119
A456R	-0.498
Q286C	-0.00905
P44S	-0.107
A405R	0.00307
G372R	-0.304
L360P	-1.26
A99T	-0.459
G201K	0.012
L393P	-0.792
G258W	-1.49
P317Y	-0.0115
L355Q	-0.061
F250N	-0.903
V468A	-0.0846
T66Y	-0.00942
Y76H	-0.27
K481D	0.016
G201P	-1.06
L149C	-0.585
I359Y	-0.266
L40P	0.00594

Variant	8OG:A repair function score
A513C	-0.00572
T112G	-0.908
S197V	-0.973
Q470K	0.0155
A223E	-0.219
F68S	-1.34
Y56Q	-0.0234
V206D	-1.02
A36F	0.0951
K127V	-0.306
M108C	-0.99
N119A	0.121
T204S	-0.127
L370K	-0.936
H420W	-0.434
P331L	-0.609
G186A	-0.672
V274A	-0.219
S296E	-0.0247
Q239M	-0.146
G150S	-1.26
G258E	-1.27
R364F	-0.639
E385K	-0.468

Variant	8OG:A repair function score
T130W	-0.522
L360Q	-0.916
T439E	0.0225
A334W	-0.28
F453L	-0.306
L145D	0.000565
R336P	-0.136
A6H	-0.0145
V242K	-0.949
G356H	-0.148
A63W	-0.00488
K464A	-0.184
G148W	-1.48
Q159Y	0.116
A89C	-0.0299
M496A	0.0241
V117L	-0.727
G475M	-0.126
T449Y	0.0178
M478S	-0.00625
A431W	-0.13
G248L	-1.01
Q499G	-0.0117
S52Y	0.0053

Variant	8OG:A repair function score
H312R	-0.0802
A371N	-0.476
R281S	-0.126
W399H	-0.291
A220R	-0.747
L257K	-1.22
S138E	-0.00767
T204L	-0.0721
A212G	-0.254
Q78K	-0.0833
L145S	0.0372
F466V	-0.443
L183C	-0.208
V415D	-0.364
S459Y	-0.268
L237N	-0.583
A391P	-0.305
C489R	-0.0027
V242S	-0.772
S507H	-0.084
Y76V	-1.41
T66R	-0.0902
A305E	-0.0473
T406N	0.0152

Variant	8OG:A repair function score
A51C	0.0297
H172D	-0.0948
Q144T	-0.0237
S483Y	-0.0745
R97A	0.00655
L109C	-0.0119
G148V	-1.08
H407W	-0.172
S105T	-0.804
L257S	-0.983
I509Y	-0.0704
W381F	-0.181
D94K	-0.193
R213Y	-0.997
P383W	-0.185
R495T	0.0177
F68D	-1.87
V117W	-0.737
Q473G	0.0222
Q310D	0.0119
S197K	-1
S480E	-0.00292
V53I	-0.0188
R283A	-0.145

Variant	8OG:A repair function score
G401E	0.191
D502A	-0.0186
N366T	-0.00609
I118P	-0.112
S318I	0.00356
V261F	-0.278
T228S	0.124
K3P	0.0268
S71Q	-0.0211
P320E	-0.11
K481C	0.0191
T346A	-0.0694
Q426T	-0.247
R217G	-1.01
R69K	-0.298
A291N	0.0139
N251R	-1.02
V102R	-1.41
V114L	-0.441
T130V	-0.178
E160L	-0.0898
T228V	0.153
